Measured values from the DeepSol protein solubility set.

Assay: soluble on expression in E. coli; label from the status in PepcDB or PDB records

Sequence	soluble on expression in E. coli
MSLTGSSSITRTCAVIFSSGFRFMDLLHAVPYAALWHGRFEHPVLRIACILSIAAGNRVPICFESITRRIRPMTLHRPAPHPVFSLAETSGPVLGDLPGWKLSDLYPSGDSPEYKRDLEKAASMAAAFEAKWKDKLESAAKAKGEDGIGAALKDYEALDDLIGRIGSFAGLTYFSDTSNPANGKLYGDAQAKLTEISAHLLFFTLELNRIDDAVMDACMANDAAAGHYRPWLVDLRKDKPHQLDDQLEQLFLEKSMTSAAAFNRLFDETMADLRFDIDGASLSLEVTLNMLQEPEPETRRKAAEALSATFKDNLRVFTLITNTLAKDKDISDRWRNFEDIADSRHLANRVERDVVDALAAAVKKAYPRLSHRYYAMKAKWLGMEQMNYWDRNAPLPDTSNTIIPWDEAKDTVLSAYGNFAPEMADIARRFFDEEWIDAPARPGKAPGAFAHPTVPSAHPYVLVNYLGKPRDVMTLAHELGHGVHQVLAGQQGALMCATPLTLAETASVFGEMLTFRKLLDDTKDIRERKAMLARKVEDMINTVVRQIAFYEFERKLHTARKEGELTSEQIGELWLSVQAESLGPAIRISEGYETWWTYIPHFIHSPFYVYAYAFGDCLVNSLYAVYQKAEAGFQEKYFELLKAGGTKHHSELLKPFGLDATDPSFWDKGLSMIEGLIDELEELDRKQAEGHHHHHH	soluble
MSLTHEEAVAIHKEKMEALEMQMKLILVLDLDQTVLHTTYGTSSLEGTVKFVIDRCRYCVKLRPNLDYMLRRISKLYEIHVYTMGTRAYAERIVEIIDPSGKYFDDRIITRDENQGVLVKRLSRLFPHDHRNIVILDDRPDVWDYCENLVLIRPFWYFNRVDINDPLRLKRKIEKEAGENKALEEGHHHHHH	not soluble
MSLTIKEIADKVNLSPTTVSNVIHGRKGKVSPDNYKKISRALEESKYVSNMGGRLLGRHGSKIIAVILNYERRSEMNVVSDPFYNQIVGFLEEEIRKKSYFMMLYTSGSVTESLRLATAWDIEGLIVLGSHPDDAKNFIKQQKRPVAFIDTYVDKESMTDDFINVGLQDFKGGYQITNYLIGLGHRRIGFFADGNQLLGVDQQRFAGFKKALSEADINLENPGFFGLDYRTNQRHIFLKKFSETKLKDYTALVFTSDFLAVDAINVFLDNGFKVPEDISITGFDHNIFSEQCRPKLTTIGQNVQKKAVLAVDFLTERIQSKQAIKKINLLLDAELIVQDSTAREGHHHHHH	soluble
MSLTKDILILAVETSCDETSVSVIKNGRDILSNTVLSQIESHKRFGGVVPEVASRHHVEGITTTINEALVDADVSMEDIDAIAVTEGPGLIGALLIGVNAAKALAFAYDKPLIPVHHIAGHIYANHIEEPLTFPLIALIVSGGHTELVYMKDHLSFEVIGETRDDAVGEAYDKVARTIGLNYPGGPQVDRLAAEGEDTYSFPRVWLDKDSYDFSFSGLKSAVINQLHNQRQKNIPIIEANVATSFQNSVVEVLTFKAIQACKEYSVQRLIVAGGVASNKGLRQSLADQCKVNDIQLTIPSPKLCTDNAAMIGVAGHSLYQQGRFADLALNGHSNIDLEEYSAEEGHHHHHH	soluble
MSLTKTEGKTASAAVKDILLSNPDGLREVIRTVMQEVLEAEMDEALGAAKGERTPERLGYRSGHYGRTLITRVGKLELRVPQDRSGHFSTELFERYQRSERALVATLAEMYVQGVSTRKVKAITEELCGHAFSASSISAINKRLDESLKAFAERSLQEPFAYLILDARYEKVREAGVVMSQAVLIAVGIDWDGRRQILSVEMAGRESRCAWKNFLVRLKGRGLKGVELVVSDDHAGLVAAIGEVIPEAAWQRCYVHFLRNALDHLPRKHGDDCLQELRWLYDRRDLDEAKADLAAWLGKWSVRYPRLTSWVEETIEQTLTFFRLPRQHHKHLKSTNMLERLNEEIRRRTYVVRIFPNTESCLRLVRALAVETHENWMEANRYINMDDLREHKKLALRQAAEGHHHHHH	soluble
MSLTLADKVVYEEEIQKSRFIAKAAPVASEEEALAFLAENREPEATHNGHAYKIGLLYRFSDDGEPSGTAGRPILHAIEAQGLDRVAVLVVRYFGGVKLGAGGLVRAYGGVAAEALRRAPKVPLVERVGLAFLVPFAEVGRVYALLEARALKAEETYTPEGVRFALLLPKPEREGFLRALLDATRGQVALE	soluble
MSLTLDLRESEIVEAVYESNHTWVSVEAKIDYELDPTVLFHLTEENAGDRFYYKKNDNKTSFFGYHAITRFKNDFENKQSIFREWQKYKSDIELIHPSSDKHHLKICGGFQFSMHKSGDEWREFGINHFILPEVLITMENGVSYITYTVKAEQFEIEQFKALIAHLTQNTIDSEFEIGNIKRIEDIYKDEWRDLVKDTIDVLDEHKKIVLARKRLVMFDKNINIPYILQKASQGEHNSYLFVLESQDSIFFSQTPEQLMEVNNGILSTKAVAGTIKRTHQDEVDKENIQAFLNDDKNLNEHRFVVESILNDIAPYVRDITFNETPQILTNDHLYHLYTKIKGQLENDSYIGLLDNLHPTPALGGYPKAEAIEYIEQNEFGTRGLYGAPVGYIDMNDDCEFIVAIRSMLIKKNQATLFAGCGIVKNSDADSEVEETAVKFNPMMKALGVEEYEGHHHHHH	soluble
MSLTLGIAFVGSGFSAKFHLRGLVGVRNVEVKGVYSRNLNSSKEFAMLSEQLGLGKPKVYSDISKMLSDKEINAVWLTVPNDVHLEYTKLIAEEVSQGRSNIHGITIEKPLARNVKEAKEMIRLVEKAGLLHGYLENQIFMPSVVRAREAIWEIGSRNSGRPYLARAAEEHSGPHNSWFWRPTISGGGALIDMTCHSLEATRFLLTDPAKTKSSLKPKTVYAETKTLKWNKKEYAQYLKEKYNVDFLKEPAEDYALTIVTYEDDLGNSVLAETRTSWNYVGPGLRLSVEVLGPEYSVNINTLQSELSVFFSRNIKLPQSEAFVEKQNADQGLMPIILDEAVVYGYQGEDRHMVESFISRKMPFENWYDGLLIVQLMMHAYLSAENGRKISFDPQKVEDFIPKVARGLYSAEGHHHHHH	soluble
MSLTMPAESAATVRGRRYPADPEWFCDFRTFPVQGLGPEVGVHRRDPSSVLTVDGRYHVWYTRSTGETDGFGTGDPMAKVFPWDWSEIWHATSDDGATWVEQGRALGRGEPGSYDDRSVFTPEVLEHQGWFYLVYQVIRSPYALRSFESIAMAKAPSPDGPWVRSPQPILRPQADGEWAGEEDNRLSVVSQGSFDSHKVHDPILVPFQGRFFLYYKGEQMGEGFSAGGRTTRWGLAIADDIEGPYHRCPANPVTNSGHETCVWRYGDGIAAMLTTDGPERNTIQFAPDGINFEIMAHIANPPVATGPLRLPDHAVAPLDGVRWGLCHDVTASWHYIQGFAADERQKMFYTRGLSPETAESAEADALPAPHEKEGHHHHHH	soluble
MSLTPATQPLINAEPAVAAQTEQNPQVGQVMPGVQGADAPVVAQNGPSRDVKLTFAQIAPPPGSMVLRGINPNGSIEFGMRSDEVVTKAMLNLEYTPSPSLLPVQSQLKVYLNDELMGVLPVTKEQLGKKTLAQMPINPLFITDFNRVRLEFVGHYQDVCENPASTTLWLDVGRSSGLDLTYQTLNVKNDLSHFPVPFFDPRDNRTNTLPMVFAGAPDVGLQQASAIVASWFGSRSGWRGQNFPVLYNQLPDRNAIVFATNDKRPDFLRDHPAVKAPVIEMINHPQNPYVKLLVVFGRDDKDLLQAAKGIAQGNILFRGESVVVNEVKPLLPRKPYDAPNWVRTDRPVTFGELKTYEEQLQSSGLEPAAINVSLNLPPDLYLMRSTGIDMDINYRYTMPPVKDSSRMDISLNNQFLQSFNLSSKQEANRLLLRIPVLQGLLDGKTDVSIPALKLGATNQLRFDFEYMNPMPGGSVDNCITFQPVQNHVVIGDDSTIDFSKYYHFIPMPDLRAFANAGFPFSRMADLSQTITVMPKTPNEAQMETLLNTVGFIGAQTGFPAINLTVTDDGSTIQGKDADIMIIGGIPDKLKDDKQIDLLVQATESWVKTPMRQTPFPGIVPDESDRAAETQSTLTSSGAMAAVIGFQSPYNDQRSVIALLADSPRGYEMLNDAVNDSGKRATMFGSVAVIRESGINSLRVGDVYYVGHLPWFERLWYALANHPILEGHHHHHH	soluble
MSLTPEKLPLHVLLAEDSVVNQKVALSMLGKLGCFPDVAANGREAIDAMRQKRYDLVFMDCQMPEIDGYEVTRRIRKDHSLLCSPDIPVVAMTANAMKGDREKCIDAGMDDFMAKPLKKSDFQAIFERYFPGLFVRESSKEAGAGALTTDDVFLIDDVLFRLQNDREIILIIIGQFLLEAALQITELQAAAAEHDTERVRILSHTIKGAAATVGGQELSRCAAIIEQGAKSGDLTGIDEHLRDLNASYLRFKERVEASGWCEEGGEGHHHHHH	soluble
MSLTPRFIDLHTHTTASDGSDSPADLVRKATEAGLAAVAVTDHDTVAGLDEAVAMGHETGIEVVRGCELGVRSEYGEIHILGLWLPEKPETLLDAMKELRRHRNERNERIVDNLRTLGMDITYEEVRALSGGVSVGRPHIALALLRHGYIRTPQEAFDRFIGPGAPAYAPKKVFSPAEGVRLLASCGATVAIAHPMLLRCPEEWLDDTVADLKVAGLDAIEAYHSEHSHKDERRCVDIADRHGLVLTGGSDYHGKAKPAISLGRGRGGLRVTTHVLDNLKRHRRERGLEGHHHHHH	soluble
MSLTQNIRPLPQFKYHPKPLETGAFEQDKTVECDCCEQQTSVYYSGPFYCVDEVEHLCPWCIADGSAAEKFAGSFQDDASIEGVEFEYDEEDEFAGIKNTYPDEMLKELVERTPGYHGWQQEFWLAHCGDFCVFIGYVGWNDIKDRLDEFANLEEDCENFGIRNSDLAKCLQKGGHCQGYLFRCLHCGKLRLWGDFSEGGSHHHHHH	soluble
MSLTRAAVNPKPFVVPELKQWTGKDGNFTPGKDTRIVCTSQNPELLRIARMFADDYQQMFGQTLSVAQGKATSGDFVLSLSADKKLGEEGYAIKITDRVAISAPTPTGLYWSTRTLLQLAEQNQERSLPQGTIRDYPDYPLRGFMIDCGRKFIPMAYLQDLVKIMAYYKMNTLQVHLNDNGFKQYFEHNWDKTYAAFRLESETYPGLTARDGSYSKKEFIDFQKQAASNFVEIIPEIDVPAHSLALTHYKPEIGSKEYGMDHLDLFKPETYEFVDALFKEYLEGDNPVFVGKRVHIGTDEYSNAKKDVVEKFRAFTDHYIRFVEGFGKQAVVWGALSHAKGDTPVKSENVVMNAWYNGYADPATMIKDGYQLISIPDGLVYIVPKAGYYYDYLNEPYLYKEWTPAHIGKAVFDEKHPSILGGMFAIWNDHVGNGISVKDIHHRIFSPLQTLSVKMWTGAQTGIPYETFNEKRALLSEAPGVNQLARIGKKPELVYERSTVAPGSTSDYPEIGYNYTVSFDITGAKESEGTELFRSPNAVFYLSDPIRGEGHHHHHH	soluble
MSLTSKPYIMGVDIGTSSTKAVLFNQRGEVIFRQATHYELITDETGKAEESPTEIFDAVLTSIQAVMKNINTEELAGISFSSAMHSLIMVGSNGELLTECITWADGRSSETLEKVKRDNYLFQLYEATGTPIHPMSPFAKICWLKEEKPTLFKRTEKFVDIKSYILYRLFGVWVMDESLASGTGLYNIMEHDWEFEAMEIVKLTPDFLPKVVPETYQLAGVKKEYAELMGIPENLPFIIGGSDGALANIGIQATGQNDVTITVGTSGAVRKLTDQFQIDSRGRTFCYGAGDGYFIAGGAVNNGGKVVEWGLQQFGSEAEISRRDFASFIAKIEEVPPGAAGLLFQPYLLGERAPFWTNDIRGGFVGLTINHTKAHFIRAILEGVAFNLAEVYEAVSAPDDIIYVTGGISAHDAWCKLLADILNREIRVPHTIEGSSLGAAIIGMRSLGILKDLNLKHTLPIKAVYHPSENVLKYAELRLIFKQVTTQLMSSYSQLNSWQKKFDINSEGHHHHHH	soluble
